Assay results reported in patent publication US9096835B2, “DNA polymerase” (Medical Research Council, priority 2003, dated 2015).
“And” between values parts separate entries of the source, which are not always exact repeats. Equal entries are not always repeated.

Experiments:
[1] = system: primer-template duplex with matched or mismatched 3′ terminus; assay: Steady-state extension kinetics, gel-based assay; type: biochemical; settings: incorporated base is dCTP
Experimental: (§1) Kinetic parameters were determined using a gel-based assay essentially as described (16). Primers 15, 16, 17 (3′ base=G, C, A respectively) were ^32P-labeled and annealed to one of template strands 18, 19, 20 (template base=C, G, A respectively) or 21 (template base C different context). Duplex substrates were used at 50 nM final concentration in 1× Taq buffer with various concentrations of enzyme and dNTP. Reactions were carried out at 60° C. for times whereby <20% of primer-template was utilized at the highest concentration of dNTP.
(§2) Extension and incorporation kinetics of M1 and M4 for a selection of mismatches were measured using a gel-based steady-state kinetic assay (Goodman) (Tables 1 & 2). M1 and M4 respectively extend a C•C mispair 390 and 75-fold more efficiently than wtTaq. […] The gain in extension efficiency derives predominantly from increased relative Vmax values for the mutant polymerases, while Km for nucleotide substrates remains largely unchanged. For most DNA polymerases the relative efficiency of extending a given mispair (f0ext) is similar to the relative efficiency of forming it (finc) (Goodman 1993, Goodman 1990, Washington 2001). Indeed, M1 and M4 respectively incorporate dCTP opposite template base C 206- and 29-fold more efficiently than wtTaq (Table 2).

[2] = system: primer-template duplex, correct or incorrect incoming dNTP; assay: Steady-state single nucleotide incorporation kinetics, gel-based assay; type: biochemical
Experimental: as §1, §2

[3] = PCR with all four dNTPs replaced by αS dNTPs; type: biochemical; settings: 50 cycle PCR, 50 μM αS dNTPs
Experimental: A PCR assay was used to screen and rank clones. Briefly, clones were normalized for activity in PCR with matched primers 3, 4 and activity with mismatched primers 1 and 2 (1 μM each) determined at minimal cycle number (15-25 cycles). Extension capability for different mismatches was determined by the same assay using mismatch primers 2 (C•C mismatch), 5 (A•A mismatch), 6 (G•G mismatch), 7 (G•A mismatch) with matched primer 3 or primer 1 (A•G mismatch) with matched primer 4. Incorporation of unnatural substrates in 50 cycle PCR was carried out using standard conditions and 50 μM […] dNTPs (Promega) or 50 μM FITC-12-dATP (Perkin-Elmer), Rhodamine-5-dUTP (Perkin-Elmer) or Biotin-16-dUTP (Roche) with equivalent amounts of the other 3 dNTPs (all 50 μM). Long PCR was carried out using a two-step cycling protocol as described (22) 94° C. for 2 minutes, followed by 20 cycles of (94° C. 15 sec, 68° C. 30 min) using 5 ng of phage λ DNA (New England Biolabs) template and either primers 9, 10, 11 with primer 12 or primer 13 with primers 10, 14.

[4] = system: primer-template DNA substrates; assay: Processivity primer extension assay with and without trap DNA; type: biochemical
Experimental: Processivity was measured using a primer extension assay the presence and absence of trap DNA. Termination probabilities were calculated according to the method of Kokoska et al.
Oligonucleotide primer 32 (5′-GCGGTGTAGAGACGAGTGCGGAG-3′) (SEQ ID NO: 117) was ^32P-labelled and annealed to the template 33 (5′-CTCTCACAAGCAGCCAGGCAAGCTCCGCACTCGTCTCTACACCGCTCCGC-3′ (SEQ ID NO: 118)) (at a primer/template ratio of molar 1/1.5). wtTaq (0.0025 nM; 0.025 nM; 0.25 nM), M1(0.05 nM; 0.5 nM; 5 nM), and M4 (0.05 nM; 0.5 nM; 5 nM) were preincubated with the primer-template DNA substrates (10 nM) in 10 mM Tris-HCl at pH 9.0, 5 mM MgCl2, 50 mM KCl, 0.1% Triton X 100 at 25° C. for 15 min. Reactions were initiated by addition of 100 μM dNTPs with or without trap DNA (1000-fold excess of unlabeled primer-templates). Reactions were performed at 60° C. for 2 min. […] Thus, in the presence of trap DNA, all DNA synthesis resulted from a single DNA binding event. Gel band intensities were calculated using a Phosphoimager and ImageQuant (both Molecular Dynamics) software. Percentage of polymerase molecules, which extended primers to the end of the template was calculated using the formula: In×100%/(I1+I2+ . . . +In), where In is the intensity of the band at position 22 or 23; I1, I2 . . . is the intensity of the band at position 1, 2 . . . . Termination probabilities (τ) were calculated according to the method of Kokoska et al^1, whereby t at a particular template position was calculated as the intensity of the band at this position divided by the sum of the intensity of this band and the band intensities of all longer products.

[5] = biological target: matched and mismatched primer-template duplex; assay: Template affinity equilibrium binding assay; settings: not shown
Experimental: An equilibrium binding assay (12) was used to determine relative affinity of polymerases for the mismatched primer-templates used in the kinetics assays. Polymerases were preincubated at 60° C. in 1× Taq buffer with 50 nM ^32P-labeled matched primer-template and 50 nM unlabeled mismatched competitor primer-templates. Reactions were initiated by simultaneous addition of dCTP (200 μM) and trap DNA (XbaI/SalI-restricted sheared salmon sperm DNA, 4.5 mg/ml).

[6] = 3′-terminal base pair C · G (template base: 3′ primer base), matched

B1: M1: Taq mutant G84A, D144G, K314R, E520G, F598L, A608V, E742G; SEQ ID NO: 1 (protein)
chain: MRGMLPLFEPKGRVLLVDGHHLAYRTFHALKGLTTSRGEPVQAVYGFAKSLLKALKEDGDAVIVVFDAKAPSFRHEAYGGYKAARAPTPEDFPRQLALIKELVDLLGLARLEVPGYEADDVLASLAKKAEKEGYEVRILTADKGLYQLLSDRIHVLHPEGYLITPAWLWEKYGLRPDQWADYRALTGDESDNLPGVKGIGEKTARKLLEEWGSLEALLKNLDRLKPAIREKILAHMDDLKLSWDLAKVRTDLPLEVDFAKRREPDRERLRAFLERLEFGSLLHEFGLLESPKALEEAPWPPPEGAFVGFVLSRREPMWADLLALAAAAGGRVHRAPEPYKALRDLKEARGLLAKDLSVLALREGLGLPPGDDPMLLAYLLDPSNTTPEGVARRYGGEWTEEAGERAALSERLFANLWGRLEGEERLLWLYREVERPLSAVLAHMEATGVRLDVAYLRALSLEVAEEIARLEAEVFRLAGHPFNLNSRDQLERVLFDELGLPAIGKTEKTGKRSTSAAVLGALREAHPIVEKILQYRELTKLKSTYIDPLPDLIHPRTGRLHTRFNQTATATGRLSSSDPNLQNIPVRTPLGQRIRRAFIAEEGWLLVVLDYSQIELRVLAHLSGDENLIRVFQEGRDIHTETASWMFGVPREAVDPLMRRAAKTINFGVLYGMSAHRLSQELAIPYEEAQAFIERYFQSFPKVRAWIEKTLEEGRRRGYVETLFGRRRYVPDLEARVKSVRGAAERMAFNMPVQGTAADLMKLAMVKLFPRLEEMGARMLLQVHDELVLEAPKERAEAVARLAKEVMEGVYPLAVPLEVEVGIGEDWLSAKE
modifications: Mutant Thermus aquaticus DNA polymerase
Vmax ([1]; 3′-terminal base pair A · A (template base: 3′ primer base)): 1.5 % Min^−1
Km ([1]; 3′-terminal base pair A · A): 40.9 µM
Ratio of fext, fext (mutant polymerase)/fext (wtTaq) ([1]; 3′-terminal base pair A · A): 3.6
fext, f (mismatched 3′terminus)/f (matched terminus) ([1]; 3′-terminal base pair A · A): 2.4 × 10^−6
Vmax ([1]; 3′-terminal base pair A · G (template base: 3′ primer base)): 44.6 % Min^−1
Km ([1]; 3′-terminal base pair A · G): 280 µM
Ratio of fext, fext (mutant polymerase)/fext (wtTaq) ([1]; 3′-terminal base pair A · G): 6.2
fext, f (mismatched 3′terminus)/f (matched terminus) ([1]; 3′-terminal base pair A · G): 1.3 × 10^−6
Vmax ([1]; 3′-terminal base pair C · C (template base: 3′ primer base)): 9.2 % Min^−1
Km ([1]; 3′-terminal base pair C · C): 25.8 µM
Ratio of fext, fext (mutant polymerase)/fext (wtTaq) ([1]; 3′-terminal base pair C · C): 390
fext, f (mismatched 3′terminus)/f (matched terminus) ([1]; 3′-terminal base pair C · C): 2.3 × 10^−5
Km [1, 6]: 0.02 µM
Vmax [1, 6]: 308.0 % Min^−1
Vmax ([1]; 3′-terminal base pair G · A (template base: 3′ primer base)): 2.4 % Min^−1
Km ([1]; 3′-terminal base pair G · A): 22 µM
Ratio of fext, fext (mutant polymerase)/fext (wtTaq) ([1]; 3′-terminal base pair G · A): 13.3
fext, f (mismatched 3′terminus)/f (matched terminus) ([1]; 3′-terminal base pair G · A): 7.2 × 10^−6
Vmax ([1]; 3′-terminal base pair G · G (template base: 3′ primer base)): 29.6 % Min^−1
Km ([1]; 3′-terminal base pair G · G): 67 µM
Ratio of fext, fext (mutant polymerase)/fext (wtTaq) ([1]; 3′-terminal base pair G · G): 22.5
fext, f (mismatched 3′terminus)/f (matched terminus) ([1]; 3′-terminal base pair G · G): 2.9 × 10^−5
Km ([2]; base pair C: dCTP): 264 µM
Ratio of finc, finc (mutant polymerase)/finc (wtTaq) ([2]; base pair C: dCTP): 206 and 206.74
finc, f (incorrect dNTP)/f (correct dNTP) ([2]; base pair C: dCTP): 7.97 × 10^−6
Vmax ([2]; base pair C: dCTP (template base: incoming nucleotide)): 6.08 % Min^−1
Vmax ([2]; base pair C: dGTP (template base: incoming nucleotide), correct dNTP): 111.66 % Min^−1
Km ([2]; base pair C: dGTP, correct dNTP): 0.0387 µM
Km ([2]; base pair G: dATP): 257 µM
Ratio of finc, finc (mutant polymerase)/finc (wtTaq) ([2]; base pair G: dATP): 2.08
finc, f (incorrect dNTP)/f (correct dNTP) ([2]; base pair G: dATP): 1.72 × 10^−4
Vmax ([2]; base pair G: dATP (template base: incoming nucleotide)): 681.82 % Min^−1
Vmax ([2]; base pair G: dCTP (template base: incoming nucleotide), correct dNTP): 308 % Min^−1
Km ([2]; base pair G: dCTP, correct dNTP): 0.02 µM
Km ([2]; base pair G: dGTP): 377 µM
Ratio of finc, finc (mutant polymerase)/finc (wtTaq) ([2]; base pair G: dGTP): 21.88
finc, f (incorrect dNTP)/f (correct dNTP) ([2]; base pair G: dGTP): 3.72 × 10^−5
Vmax ([2]; base pair G: dGTP (template base: incoming nucleotide)): 215.98 % Min^−1
Km ([2]; base pair G: dTTP): 1.65 µM
Ratio of finc, finc (mutant polymerase)/finc (wtTaq) ([2]; base pair G: dTTP): 2.43
finc, f (incorrect dNTP)/f (correct dNTP) ([2]; base pair G: dTTP): 4.01 × 10^−4
Vmax ([2]; base pair G: dTTP (template base: incoming nucleotide)): 10.19 % Min^−1
size of PCR products with all four αS dNTPs [3]: up to 2 kbp
processivity compared with wtTaq ([4]; even at the lowest enzyme concentrations): processivity equal (or higher) than wtTaq
bound polymerase that extended primers to the end of the template ([4]; in the presence of trap DNA (single DNA binding event)): 28%
termination probability ([4]; positions 6 and 7): 1%
dissociation constants for matched and mismatched primer-template duplex [5]: indistinguishable
